Numbering of substitutions follows the chain as printed. In names and notes the source's numbering stands.
Columns and labels:
Format in all cases: cell-based
[1] = YFP quench plate reader assay, response to acetylcholine; conditions: LX293T YFP reporter cells; for percent quench of YFP fluorescence, 10 uM ach: 10 uM acetylcholine; for percent quench of YFP fluorescence, 100 uM ach: 100 uM acetylcholine; for percent quench of YFP fluorescence, 1 mM ach: 1 mM acetylcholine; for percent quench of YFP fluorescence, 3 mM ach: 3 mM acetylcholine
Source text: (§1) FIGS. 1A-FIG. 1G show the heat maps of the percent quench of YFP fluorescence in the mutants of the engineered chimeric receptor SEQ ID NO:33 that comprise the indicated double amino acid substitutions following stimulation by various doses of either acetylcholine or the indicated non-native ligand. Ligand doses are written across the top of each chart. Numbers in the boxes indicate the absolute amount of quench observed. Dark blue=80% maximal quench of YFP reporter. Light blue=quench of 30-80%. White=10-30%. Orange=0-10% quench. Negative values represent non-responders that have a negative quench due to a stimulation artifact. SEQ ID NO:29 is a non-responding chimera used as a negative control. Abbreviations for non-native ligand names: abt: ABT-126; ach: acetylcholine; apn: APN-1125; azd: AZD-0328; brd: TC-5619; fac: RG3487; tc6: TC-6987.
(§2) Tables 2-8 below lists percent quench of YFP fluorescence following stimulation of the indicated engineered receptor by various doses of either acetylcholine or the non-native ligand.
(§3) To screen these mutant LGICs for those having novel response profiles to ligands, an anion reporter assay was developed to assess the function of channels in a high throughput format. In this assay, cells expressing a YFP reporter whose fluorescence is quenched in the presence of anion are transfected with DNA encoding the channel of interest. Upon exposure to ligand, channels that are activated will flux anion, resulting in a dose-dependent quench of the YFP that can be detected on a plate reader.
(§4) Lenti-X 293T cells (LX293T, Clontech) were maintained in DMEM containing 10% FBS and 1% penicillin/streptomycin (Invitrogen). […] Two days before assay, cells were split at a density of 20,000 cells/well in a 96-well tissue culture plate coated with poly-d lysine (Thermo Scientific). The next day, the cells were transiently transfected with 0.1 μg of DNA per well using standard Fugene protocol (Promega). On the day of assay, cells were washed 2 times in 1× extracellular solution (1×ECS: 140 mM NaCl, 5 mM KCl, 1 mM MgCl2, 2 mM CaCl2, 10 mM HEPES, 10 mM glucose, pH 7.2, mOsms 300). After the last wash, 100 μL of 1×ECS was added to the wells and the plate was incubated at 37° C. for 30 min. While incubating the plate, the drugs were diluted to a 2× concentration in 1×ECS-NaI (same components as 1×ECS except the 140 mM NaCl was replaced by 140 mM NaI). The plates were then read on a Flexstation3 (Molecular Devices). Each well, 8 wells at a time, of the plate is read for 2 min using a Flexstation3 (Molecular Devices) as follows: 1) a baseline YFP fluorescence is read for 17 sec, 2) 100 μL of ligand is added, and 3) the changes in YFP fluorescence are then measured every 1.3 sec for the remaining time.
(§5) FIG. 1 provides heat maps of the percent quench of YFP fluorescence following stimulation by various doses of either acetylcholine or the non-native ligand as indicated in the Figure. A positive fluorescence signal, as indicated by blue shaded cells, indicate that the engineered receptor is activated by the non-native ligand at that concentration. […] Table 12 lists the EC50 values for the indicated double mutants to acetylcholine (Ach) and TC-5619 as determined from the YFP fluorescence plate reader experiment.

[2] = YFP quench plate reader assay, response to ABT-126; conditions: LX293T YFP reporter cells; for percent quench of YFP fluorescence, 50 nM abt: 50 nM ABT-126; for percent quench of YFP fluorescence, 100 nM abt: 100 nM ABT-126; for percent quench of YFP fluorescence, 300 nM abt: 300 nM ABT-126; for percent quench of YFP fluorescence, 1 uM abt: 1 uM ABT-126
Source text: as §1, §2, §3, §4, §5

[3] = YFP quench plate reader assay, response to AZD-0328; conditions: LX293T YFP reporter cells; for percent quench of YFP fluorescence, 100 nM azd: 100 nM AZD-0328; for percent quench of YFP fluorescence, 300 nM azd: 300 nM AZD-0328; for percent quench of YFP fluorescence, 30 uM azd: 30 uM AZD-0328
Source text: as §1, §2, §3, §4, §5

[4] = YFP quench plate reader assay, response to TC-5619; conditions: LX293T YFP reporter cells; for percent quench of YFP fluorescence, 1 nM brd: 1 nM TC-5619; for percent quench of YFP fluorescence, 3 nM brd: 3 nM TC-5619; for percent quench of YFP fluorescence, 10 nM brd: 10 nM TC-5619; for percent quench of YFP fluorescence, 30 nM brd: 30 nM TC-5619; for percent quench of YFP fluorescence, 100 nM brd: 100 nM TC-5619; for percent quench of YFP fluorescence, 300 nM brd: 300 nM TC-5619; for percent quench of YFP fluorescence, 1 uM brd: 1 uM TC-5619
Source text: as §1, §2, §3, §4, §5

[5] = High throughput electrophysiology in HEK293T cells, AZD-0328; conditions: HEK293T cells, held at −60 mV
Method: To confirm the EC50s determined by plate reader as well as develop a better understanding of maximum current flow, the engineered receptors were subjected to high throughput electrophysiology system, as described below. For HEK293T studies, cDNAs encoding ion channels were cloned into pcDNA3.1 using standard recombination techniques. HEK293T cells from Clontech (Lenti-X™ 293T Cell Line) were cultured in DMEM supplemented with 10% FBS and 1% Pen/Strep to 40-50% confluence using standard cell culture protocols, transfected with ion channel plasmids at a concentration of 18 μg per 15 cm dish using Fugene 6, and grown for an additional 24 hours. Cells were then assayed on a electrophysiological system (IonFluxHT and/or Mercury, Fluxion Biosciences) in which dose-response relationships may be assessed through a microfluidics-based platform for establishing whole cell configurations. Ensemble plates were primed with extracellular buffer (140 mM NaCl, 5 mM KCl, 2 mM CaCl2), 1 mM MgCl2, 10 mM HEPES, and 10 mM glucose, pH 7.2 with NaOH, mOsm 310), intracellular buffer (145 mM CsCl, 2 mM CaCl2, 2 mM MgCl2, 10 mM HEPES, and 10 mM EGTA, pH 7.2 with CsOH, mOsm 305), as adapted from Lynagh and Lynch, and test compounds (stocks prepared fresh) diluted in extracellular buffer. Cells were then released from the plate with Accutase, centrifuged, resuspended in extracellular buffer, and loaded into Ensemble plates. Cells were then subjected to a standard protocol for priming, trapping, breaking, and establishing whole cell configuration, with cells held at −60 mV throughout the recording. After recording baseline, progressive doses of test compounds were applied using the IonFlux software to assess dose response relationships. Data were then analyzed off-line using custom Python scripts to convert data to .csv format, re-plot traces, and apply QC measurements to reject unstable recordings (i.e. thresholding based on access resistance and/or standard deviation in baseline, as well as artifact rejection). Peak currents were then calculated and population data were fit using a 4-parameter logistic equation as described by the Hill Equation. Currents were measured on an automated patch clamp system (Fluxion Biosciences) following 1 second addition of drug and the EC50 values calculated are tabulated below in Table 13.

[6] = YFP quench plate reader assay, response to TC-6987; conditions: LX293T YFP reporter cells; for percent quench of YFP fluorescence, 1 uM tc6: 1 uM TC-6987; for percent quench of YFP fluorescence, 10 uM tc6: 10 uM TC-6987; for percent quench of YFP fluorescence, 500 uM tc6: 500 uM TC-6987
Source text: as §1, §2, §3, §4, §5

[7] = YFP quench plate reader assay, response to RG3487; conditions: LX293T YFP reporter cells; for percent quench of YFP fluorescence, 30 nM fac: 30 nM RG3487; for percent quench of YFP fluorescence, 100 nM fac: 100 nM RG3487; for percent quench of YFP fluorescence, 300 nM fac: 300 nM RG3487; for percent quench of YFP fluorescence, 10 uM fac: 10 uM RG3487; for percent quench of YFP fluorescence, 30 uM fac: 30 uM RG3487
Source text: as §1, §2, §3, §4, §5

[8] = YFP quench plate reader assay, response to APN-1125; conditions: LX293T YFP reporter cells; for percent quench of YFP fluorescence, 100 nM apn: 100 nM APN-1125; for percent quench of YFP fluorescence, 1 uM apn: 1 uM APN-1125; for percent quench of YFP fluorescence, 30 uM apn: 30 uM APN-1125
Source text: as §1, §2, §3, §4, §5

B1: Y115D, S170T in SEQ ID NO: 33: engineered chimeric α7-nAChR/GlyRα1 LGIC receptor: SEQ ID NO: 33 with substitutions Y115D and S170T (protein)
chain: MRCSPGGVWLALAASLLHVSLQGEFQRKLYKELVKNYNPLERPVANDSQPLTVYFSLSLLQIMDVDEKNQVLTTNIWLQMSWTDHYLQWNVSEYPGVKTVRFPDGQIWKPDILLDNSADERFDATFHTNVLVNSSGHCQYLPPGIFKSSCPMDLKNFPMDVQTCKLKFGTWSYGGWSLDLQMQEADISGYIPNGEWDLVGIPGKRSERFYECCKEPYPDVTFTVTMRRRMGYYLIQMYIPSLLIVILSWISFWINMDAAPARVGLGITTVLTMTTQSSGSRASLPKVSYVKAIDIWMAVCLLFVFSALLEYAAVNFVSRQHKELLRFRRKRRHHKSPMLNLFQEDEAGEGRFNFSAYGMGPACLQAKDGISVKGANNSNTTNPPPAPSKSPEEMRKLFIQRAKKIDKISRIGFPMAFLIFNMFYWIIYKIVRREDVHNQ
modifications: synthetic sequence of chimeric LGIC
- percent quench of YFP fluorescence, 10 uM ach [1]: −0.46%
- percent quench of YFP fluorescence, 100 uM ach [1]: −4.93%
- percent quench of YFP fluorescence, 1 mM ach [1]: −11.18%
- percent quench of YFP fluorescence, 3 mM ach [1]: −3.53%
- percent quench of YFP fluorescence, 50 nM abt [2]: −11.83%
- percent quench of YFP fluorescence, 100 nM abt [2]: −11.5%
- percent quench of YFP fluorescence, 300 nM abt [2]: −8.01%
- percent quench of YFP fluorescence, 1 uM abt [2]: −9.34%
- percent quench of YFP fluorescence, 100 nM azd [3]: −0.71%
- percent quench of YFP fluorescence, 300 nM azd [3]: −1.73%
- percent quench of YFP fluorescence, 30 uM azd [3]: 47.39%
- percent quench of YFP fluorescence, 1 nM brd [4]: −9.78%
- percent quench of YFP fluorescence, 3 nM brd [4]: 12.06%
- percent quench of YFP fluorescence, 10 nM brd [4]: −9.02%
- percent quench of YFP fluorescence, 30 nM brd [4]: 16.3%
- percent quench of YFP fluorescence, 100 nM brd [4]: −7.44%
- percent quench of YFP fluorescence, 300 nM brd [4]: −10.93%
- percent quench of YFP fluorescence, 1 uM brd [4]: −4.55%
- EC50 AZD-0328 [5]: no activity
- percent quench of YFP fluorescence, 1 uM tc6 [6]: 31.9%
- percent quench of YFP fluorescence, 10 uM tc6 [6]: 25.54%
- percent quench of YFP fluorescence, 500 uM tc6 [6]: 21.13%
- percent quench of YFP fluorescence, 30 nM fac [7]: 38.08%
- percent quench of YFP fluorescence, 100 nM fac [7]: −14.37%
- percent quench of YFP fluorescence, 300 nM fac [7]: 19.41%
- percent quench of YFP fluorescence, 10 uM fac [7]: 67.33%
- percent quench of YFP fluorescence, 30 uM fac [7]: 79.67%
- percent quench of YFP fluorescence, 100 nM apn [8]: −18.17%
- percent quench of YFP fluorescence, 1 uM apn [8]: −15.2%
- percent quench of YFP fluorescence, 30 uM apn [8]: −14%

B2: Y115D, L131E in SEQ ID NO: 33: engineered chimeric α7-nAChR/GlyRα1 LGIC receptor: SEQ ID NO: 33 with substitutions Y115D and L131E (protein)
chain: B1 chain with L131E, T170S
modifications: synthetic sequence of chimeric LGIC
- percent quench of YFP fluorescence, 10 uM ach [1]: 15.45%
- percent quench of YFP fluorescence, 100 uM ach [1]: 13.77%
- percent quench of YFP fluorescence, 1 mM ach [1]: 27.42%
- percent quench of YFP fluorescence, 3 mM ach [1]: 53.62%
- percent quench of YFP fluorescence, 50 nM abt [2]: −1.68%
- percent quench of YFP fluorescence, 100 nM abt [2]: −2.25%
- percent quench of YFP fluorescence, 300 nM abt [2]: −2.37%
- percent quench of YFP fluorescence, 1 uM abt [2]: 3.68%
- percent quench of YFP fluorescence, 100 nM azd [3]: 24.49%
- percent quench of YFP fluorescence, 300 nM azd [3]: 45.34%
- percent quench of YFP fluorescence, 30 uM azd [3]: 71.21%
- percent quench of YFP fluorescence, 1 nM brd [4]: −1.52%
- percent quench of YFP fluorescence, 3 nM brd [4]: −5.35%
- percent quench of YFP fluorescence, 10 nM brd [4]: −3.49%
- percent quench of YFP fluorescence, 30 nM brd [4]: 2.16%
- percent quench of YFP fluorescence, 100 nM brd [4]: 4.18%
- percent quench of YFP fluorescence, 300 nM brd [4]: 70.2%
- percent quench of YFP fluorescence, 1 uM brd [4]: 43.11%
- EC50 AZD-0328 [5]: no activity
- percent quench of YFP fluorescence, 1 uM tc6 [6]: 36.07%
- percent quench of YFP fluorescence, 10 uM tc6 [6]: 31.35%
- percent quench of YFP fluorescence, 500 uM tc6 [6]: 28.18%
- percent quench of YFP fluorescence, 30 nM fac [7]: 45.76%
- percent quench of YFP fluorescence, 100 nM fac [7]: 63.92%
- percent quench of YFP fluorescence, 300 nM fac [7]: 79.43%
- percent quench of YFP fluorescence, 10 uM fac [7]: 80.1%
- percent quench of YFP fluorescence, 30 uM fac [7]: 84.91%
- percent quench of YFP fluorescence, 100 nM apn [8]: −5.71%
- percent quench of YFP fluorescence, 1 uM apn [8]: 13.03%
- percent quench of YFP fluorescence, 30 uM apn [8]: 25.2%

From patent publication US20220348635A1, “COMPOSITIONS AND METHODS FOR NEUROLOGICAL DISEASES” (Coda Biotherapeutics, Inc., priority 2019, published 2022)
